PMC3907290, “De Novo Prediction of PTBP1 Binding and Splicing Targets Reveals Unexpected Features of Its RNA Recognition and Function”

Target: PTBP1 (Homo sapiens, UniProt P26599 1-557)
Assay: EMSA; apparent Kd; tRNA competitor; EMSA, 10 uL: 6 uL DG buffer (20 mM Hepes-KOH pH 7.9, 20% glycerol, 80 mM K-glutamate, 0.2 mM EDTA, 0.2 mM PMSF), about 2.2 mM MgCl2, 0.05 mg/ml tRNA, RNaseOut
Details: protein: recombinant; label: 32P (alpha-32P UTP, internal)

Chain of PTBP1 (P26599 whole entry): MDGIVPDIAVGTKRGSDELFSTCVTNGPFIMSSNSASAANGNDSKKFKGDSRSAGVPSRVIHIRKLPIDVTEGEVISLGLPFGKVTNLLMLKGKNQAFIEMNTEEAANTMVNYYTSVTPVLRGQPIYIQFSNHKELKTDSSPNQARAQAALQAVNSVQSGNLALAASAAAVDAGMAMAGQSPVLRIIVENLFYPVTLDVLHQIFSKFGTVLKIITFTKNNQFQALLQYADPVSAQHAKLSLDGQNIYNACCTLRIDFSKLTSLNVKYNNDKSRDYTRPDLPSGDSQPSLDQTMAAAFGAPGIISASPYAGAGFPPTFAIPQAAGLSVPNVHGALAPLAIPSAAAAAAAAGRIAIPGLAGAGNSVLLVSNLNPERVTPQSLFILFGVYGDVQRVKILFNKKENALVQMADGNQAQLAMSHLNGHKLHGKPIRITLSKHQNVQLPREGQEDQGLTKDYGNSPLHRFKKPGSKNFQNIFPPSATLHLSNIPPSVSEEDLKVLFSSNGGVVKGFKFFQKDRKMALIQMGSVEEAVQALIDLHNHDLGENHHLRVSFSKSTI

B1: probe 10 (ssRNA)
RNA: GUGAGGGCUCUUUCUUCGUGGGACCGUAGAUAGGUAGCUGCUGCUGGUCUCACACUGUUCUCCCUACAG
B1 showed a Kd of 73 nM.
